B1: Mucin-1 (Homo sapiens), P15941-12 (parent)
chain: MTPGTQSPFFLLLLLTVLTATTAPKPATVVTGSGHASSTPGGEKETSATQRSSVPSSTEKNAFNSSLEDPSTDYYQELQRDISEMAVCQCRRKNYGQLDIFPARDTYHPMSEYPTYHTHGRYVPPSSTDRSPYEKVSAGNGGSSLSYTNPAVAATSANL

The variants in this assay derive from B1. Conditions: with abl1_human ABL1, P00519.
Chain of abl1_human ABL1, P00519 (P00519 whole entry): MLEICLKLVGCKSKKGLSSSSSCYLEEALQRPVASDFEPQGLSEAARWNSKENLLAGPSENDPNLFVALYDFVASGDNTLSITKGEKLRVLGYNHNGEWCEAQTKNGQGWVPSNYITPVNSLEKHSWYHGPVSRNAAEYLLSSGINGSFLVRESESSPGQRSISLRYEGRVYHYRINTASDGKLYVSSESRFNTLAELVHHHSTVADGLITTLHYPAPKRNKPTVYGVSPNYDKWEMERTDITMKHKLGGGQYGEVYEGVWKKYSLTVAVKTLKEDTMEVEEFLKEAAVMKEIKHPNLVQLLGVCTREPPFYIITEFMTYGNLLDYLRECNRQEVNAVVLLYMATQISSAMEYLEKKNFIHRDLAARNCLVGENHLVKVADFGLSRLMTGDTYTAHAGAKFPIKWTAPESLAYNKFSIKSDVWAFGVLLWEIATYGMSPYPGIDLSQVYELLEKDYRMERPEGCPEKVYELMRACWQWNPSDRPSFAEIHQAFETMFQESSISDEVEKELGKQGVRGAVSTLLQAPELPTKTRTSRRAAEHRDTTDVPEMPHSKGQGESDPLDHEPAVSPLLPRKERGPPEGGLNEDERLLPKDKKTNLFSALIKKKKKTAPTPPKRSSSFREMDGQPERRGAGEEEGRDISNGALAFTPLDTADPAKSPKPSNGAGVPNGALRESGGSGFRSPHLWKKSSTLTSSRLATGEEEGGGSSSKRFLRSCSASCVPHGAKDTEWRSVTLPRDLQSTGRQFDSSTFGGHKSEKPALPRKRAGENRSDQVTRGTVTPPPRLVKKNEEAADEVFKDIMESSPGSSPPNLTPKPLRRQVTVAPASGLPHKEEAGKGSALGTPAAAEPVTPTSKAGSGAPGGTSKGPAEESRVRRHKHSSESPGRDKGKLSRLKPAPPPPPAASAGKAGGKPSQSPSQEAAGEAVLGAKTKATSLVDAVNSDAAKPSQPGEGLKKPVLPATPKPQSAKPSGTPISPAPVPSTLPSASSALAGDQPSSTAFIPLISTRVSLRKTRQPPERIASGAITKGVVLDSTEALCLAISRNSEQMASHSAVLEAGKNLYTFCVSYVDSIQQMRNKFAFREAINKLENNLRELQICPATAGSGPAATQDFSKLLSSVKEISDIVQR
Y147F: the “effect of a mutation on the interaction” value is recorded as “disrupting interaction”.

For the origin of these results see IntAct's records for PubMed 16888623.
